Laboratory results reported in patent US20240301086A1 (APTEVO RESEARCH AND DEVELOPMENT, published 2024).

B1: PSMA01070 Anti PSMA scFv-Fc; Anti CD3 scFv-Fc (bispecific antibody)
chain 1: QVQLVQSGAEVKKPGASVKVSCKASGYTFTDYYMHWVRQAPGQGLEWMGYFNPYNDYTRYAQKFQGRVTMTRDTSTSTVYMELSSLRSEDTAVYYCARSDGYYDAMDYWGQGTTVTVSSGGGGSGGGGSGGGGSGGGGSDIQMTQSPSSLSASVGDRVTITCRASKSISKYLAWYQQKPGKAPKLLIHSGSSLESGVPSRFSGSGSGTEFTLTISSLQPDDFATYYCQQHIEYPWTFGQGTKVEIKEPKSSDKTHTCPPCPAPPAAAPSVFLFPPKPKDTLMISRTPEVTCVVVDVSHEDPEVKFNWYVDGVEVHNAKTKPREEQYNSTYRVVSVLTVLHQDWLNGKEYKCAVSNKALPAPIEKTISKAKGQPREPQVYTLPPSRDELTKNQVSLWCLVKGFYPSDIAVEWESNGQPENNYKTTPPVLDSDGSFFLYSKLTVDKSRWQQGNVFSCSVMHEALHNHYTQKSLSLSPG
chain 2: QVQLVQSGAEVKKPGASVKVSCKASGYTFTRSTMHWVRQAPGQGLEWIGYINPSSAYTNYAQKFQGRVTLTADKSTSTAYMELSSLRSEDTAVYYCASPQVHYDYNGFPYWGQGTLVTVSSGGGGSGGGGSGGGGSGGGGSDIQMTQSPSSLSASVGDRVTITCRASSSVSYMNWYQQKPGKAPKRWIYDSSKLASGVPSRFSGSGSGTDFTLTISSLQPEDFATYYCQQWSRNPPTFGQGTKVEIKEPKSSDKTHTCPPCPAPPAAAPSVFLFPPKPKDTLMISRTPEVTCVVVDVSHEDPEVKFNWYVDGVEVHNAKTKPREEQYNSTYRVVSVLTVLHQDWLNGKEYKCAVSNKALPAPIEKTISKAKGQPREPQVYTLPPSRDELTKNQVSLSCAVKGFYPSDIAVEWESNGQPENNYKTTPPVLDSDGSFFLVSKLTVDKSRWQQGNVFSCSVMHEALHNRFTQKSLSLSPG
B2: PSMA01086 Anti PSMA scFv x Fc; Anti PSMA scFv x Fc x linker x Anti CD3 scFv (bispecific antibody)
chain 1: B1 chain 1
chain 2: QVQLVQSGAEVKKPGASVKVSCKASGYTFTDYYMHWVRQAPGQGLEWMGYFNPYNDYTRYAQKFQGRVTMTRDTSTSTVYMELSSLRSEDTAVYYCARSDGYYDAMDYWGQGTTVTVSSGGGGGGGGSGGGGSGGGGSDIQMTQSPSSLSASVGDRVTITCRASKSISKYLAWYQQKPGKAPKLLIHSGSSLESGVPSRFSGSGSGTEFTLTISSLQPDDFATYYCQQHIEYPWTFGQGTKVEIKEPKSSDKTHTCPPCPAPPAAAPSVFLFPPKPKDTLMISRTPEVTCVVVDVSHEDPEVKFNWYVDGVEVHNAKTKPREEQYNSTYRVVSVLTVLHQDWLNGKEYKCAVSNKALPAPIEKTISKAKGQPREPQVYTLPPSRDELTKNQVSLSCAVKGFYPSDIAVEWESNGQPENNYKTTPPVLDSDGSFFLVSKLTVDKSRWQQGNVFSCSVMHEALHNRFTQKSLSLSPGGGGSPSDIQMTQSPSSLSASVGDRVTITCRASSSVSYMNWYQQKPGKAPKRWIYDSSKLASGVPSRFSGSGSGTDFTLTISSLQPEDFATYYCQQWSRNPPTFGQGTKVEIKGGGGSGGGGSGGGGSGGGGSQVQLVQSGAEVKKPGASVKVSCKASGYTFTRSTMHWVRQAPGQGLEWIGYINPSSAYTNYAQKFQGRVTLTADKSTSTAYMELSSLRSEDTAVYYCASPQVHYDYNGFPYWGQGTLVTVSS
B3: PSMA01040 Fc-linker anti PSMA scFv (Fc fusion)
chain: SSEPKSSDKTHTCPPCPAPPAAAPSVFLFPPKPKDTLMISRTPEVTCVVVDVSHEDPEVKFNWYVDGVEVHNAKTKPREEQYNSTYRVVSVLTVLHQDWLNGKEYKCAVSNKALPAPIEKTISKAKGQPREPQVYTLPPSRDELTKNQVSLTCLVKGFYPSDIAVEWESNGQPENNYKTTPPVLDSDGSFFLYSKLTVDKSRWQQGNVFSCSVMHEALHNHYTQKSLSLSPGGGGSPSDIQMTQSPSTLSASVGDRVTITCRASKSISKYLAWYQQKPGKAPKLLIHSGSSLESGVPSRFSGSGSGTEFTLTISSLQPDDFATYYCQQHIEYPWTFGQGTKVEIKGGGGSGGGGSGGGGSGGGGSQVQLVQSGAEVKKPGASVKVSCKASGYTFTDYYMHWVRQAPGQGLEWMGYFNPYNDYTRYAQKFQGRVTMTRDTSTSTVYMELSSLRSEDTAVYYCARSDGYYDAMDYWGQGTTVTVSSR
B4: PSMA01037 Anti-PSMA scFv-Fc (Fc fusion)
chain: QVQLVQSGAEVKKPGASVKVSCKASGYTFTDYYMHWVRQAPGQGLEWMGYFNPYNDYTRYAQKFQGRVTMTRDTSTSTVYMELSSLRSEDTAVYYCARSDGYYDAMDYWGQGTTVTVSSGGGGSGGGGSGGGGSGGGGSDIQMTQSPSTLSASVGDRVTITCRASKSISKYLAWYQQKPGKAPKLLIHSGSSLESGVPSRFSGSGSGTEFTLTISSLQPDDFATYYCQQHIEYPWTFGQGTKVEIKSSSEPKSSDKTHTCPPCPAPPAAAPSVFLFPPKPKDTLMISRTPEVTCVVVDVSHEDPEVKFNWYVDGVEVHNAKTKPREEQYNSTYRVVSVLTVLHQDWLNGKEYKCAVSNKALPAPIEKTISKAKGQPREPQVYTLPPSRDELTKNQVSLTCLVKGFYPSDIAVEWESNGQPENNYKTTPPVLDSDGSFFLYSKLTVDKSRWQQGNVFSCSVMHEALHNHYTQKSLSLSPGK
notes: also called PSMA010137
B5: PSMA01072 Anti PSMA scFv x Anti CD3 scFv ADAPTIR (bispecific antibody)
chain: QVQLVQSGAEVKKPGASVKVSCKASGYTFTDYYMHWVRQAPGQGLEWMGYFNPYNDYTRYAQKFQGRVTMTRDTSTSTVYMELSSLRSEDTAVYYCARSDGYYDAMDYWGQGTTVTVSSGGGGSGGGGSGGGGSGGGGSDIQMTQSPSSLSASVGDRVTITCRASKSISKYLAWYQQKPGKAPKLLIHSGSSLESGVPSRFSGSGSGTEFTLTISSLQPDDFATYYCQQHIEYPWTFGQGTKVEIKEPKSSDKTHTCPPCPAPPAAAPSVFLFPPKPKDTLMISRTPEVTCVVVDVSHEDPEVKFNWYVDGVEVHNAKTKPREEQYNSTYRVVSVLTVLHQDWLNGKEYKCAVSNKALPAPIEKTISKAKGQPREPQVYTLPPSRDELTKNQVSLTCLVKGFYPSDIAVEWESNGQPENNYKTTPPVLDSDGSFFLYSKLTVDKSRWQQGNVFSCSVMHEALHNHYTQKSLSLSPGGGGSPSQVQLVQSGAEVKKPGASVKVSCKASGYTFTRSTMHWVRQAPGQGLEWIGYINPSSAYTNYAQKFQGRVTLTADKSTSTAYMELSSLRSEDTAVYYCASPQVHYDYNGFPYWGQGTLVTVSSGGGGSGGGGSGGGGSGGGGSDIQMTQSPSSLSASVGDRVTITCRASSSVSYMNWYQQKPGKAPKRWIYDSSKLASGVPSRFSGSGSGTDFTLTISSLQPEDFATYYCQQWSRNPPTFGQGTKVEIKRS
notes: also called PSMA1072
B6: PSMA01036 Anti-PSMA scFv-Fc (Fc fusion)
chain: DIQMTQSPSTLSASVGDRVTITCRASKSISKYLAWYQQKPGKAPKLLIHSGSSLESGVPSRFSGSGSGTEFTLTISSLQPDDFATYYCQQHIEYPWTFGQGTKVEIKGGGGSGGGGSGGGGSGGGGSQVQLVQSGAEVKKPGASVKVSCKASGYTFTDYYMHWVRQAPGQGLEWMGYFNPYNDYTRYAQKFQGRVTMTRDTSTSTVYMELSSLRSEDTAVYYCARSDGYYDAMDYWGQGTTVTVSSSEPKSSDKTHTCPPCPAPPAAAPSVFLFPPKPKDTLMISRTPEVTCVVVDVSHEDPEVKFNWYVDGVEVHNAKTKPREEQYNSTYRVVSVLTVLHQDWLNGKEYKCAVSNKALPAPIEKTISKAKGQPREPQVYTLPPSRDELTKNQVSLTCLVKGFYPSDIAVEWESNGQPENNYKTTPPVLDSDGSFFLYSKLTVDKSRWQQGNVFSCSVMHEALHNHYTQKSLSLSPGK

Assays:
[1] = target: T1, human CD3ε in the TCR/CD3 complex on Jurkat cells (human, UniProt P07766 23-207); test: flow cytometry on Jurkat cells, PE goat anti-human IgG Fc secondary, MFI (median)
T1 construct: whole, on cells; On the cells it stands in the whole TCR/CD3 complex; also called CD3 (+) cells; CD3-expressing Jurkat cells
T1 sequence (P07766 23-207, one chain of several): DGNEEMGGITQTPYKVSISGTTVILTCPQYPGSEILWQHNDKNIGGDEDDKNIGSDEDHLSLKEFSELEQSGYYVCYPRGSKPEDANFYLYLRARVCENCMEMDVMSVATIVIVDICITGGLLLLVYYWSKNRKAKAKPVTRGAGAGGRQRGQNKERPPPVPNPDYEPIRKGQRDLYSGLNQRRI

[2] = target: T2, Full-length Human PSMA (TSC435), on cells (human, UniProt Q04609 1-750); test: flow cytometry on C4-2B cells, PE goat anti-human IgG Fc secondary, MFI (median)
T2 construct: also called CHOK1SV/huPSMA; PSMA on C4-2B, 22RV1, LNCaP, MDA-PCa-2b cells
T2 sequence (Q04609 whole entry): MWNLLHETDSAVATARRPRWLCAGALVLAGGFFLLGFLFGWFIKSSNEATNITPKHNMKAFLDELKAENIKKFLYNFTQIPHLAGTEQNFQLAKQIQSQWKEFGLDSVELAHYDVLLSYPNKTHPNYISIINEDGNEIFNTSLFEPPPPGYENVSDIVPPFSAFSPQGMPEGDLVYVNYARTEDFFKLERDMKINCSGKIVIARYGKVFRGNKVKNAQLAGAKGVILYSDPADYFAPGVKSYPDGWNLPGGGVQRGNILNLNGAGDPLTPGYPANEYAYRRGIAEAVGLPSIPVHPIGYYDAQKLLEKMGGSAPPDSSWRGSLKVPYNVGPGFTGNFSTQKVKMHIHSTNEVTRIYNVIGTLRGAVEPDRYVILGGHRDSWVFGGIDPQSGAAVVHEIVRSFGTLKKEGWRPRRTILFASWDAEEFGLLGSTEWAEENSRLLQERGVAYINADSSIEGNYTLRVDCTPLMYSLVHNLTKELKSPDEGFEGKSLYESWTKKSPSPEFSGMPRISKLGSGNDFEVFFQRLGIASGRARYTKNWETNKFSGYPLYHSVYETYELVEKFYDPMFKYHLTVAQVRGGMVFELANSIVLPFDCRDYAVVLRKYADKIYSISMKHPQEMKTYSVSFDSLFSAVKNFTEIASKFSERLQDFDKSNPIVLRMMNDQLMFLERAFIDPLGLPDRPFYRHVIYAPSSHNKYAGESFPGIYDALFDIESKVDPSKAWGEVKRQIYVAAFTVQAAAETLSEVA

[3] = target: T2, Full-length Human PSMA (TSC435), on …; test: as above; remark: listed apart in the source
Experimental: The PSMA-binding domain PSMA01023 was evaluated in several different structural formats, including an alternative Fc region with different mutations to eliminate effector function. The PSMA01023 binding domain was configured in scFv-Fc format in VL-VH (PSMA01036) and VH-VL (PSMA01037) orientations and in Fc-scFv format in VL-VH (PSMA01040) and VH-VL (PSMA01041) orientations. These molecules were evaluated for the impact of the orientation of the scFv domains (VH-VL versus VL-VH) and position on the Fc (N- vs. C-terminus) on binding to PSMA (+) tumor cells.
C4-2B and 22RV1 cells were labelled at approximately 100,000 cells per well, in 96-well plates, with serial dilutions of PSMA-binding constructs ranging from of 0.1 to 300 nM for 30 min on ice, followed by washes and incubation with PE-labeled minimum cross species reactive secondary antibody, goat anti-human IgG Fcγ, F(ab′)2 (Jackson Laboratory) for 30 minutes on ice. Washes and incubation were done in staining buffer (PBS with 0.2% BSA and 2 mM EDTA). Cells were collected using a BDM LSRII or a BD FACSymphony™ flow cytometer (BD Biosciences) and analyzed by FlowJo flow cytometry analysis software. Median fluorescence intensity (MFI) of bound molecules on cells was determined after exclusion of doublets. Graphs were plotted using GraphPad Prism 7®.

Binder | EC50 [1] | EC50 [2] | binding result [3]
B1 | 52 nM | 30 nM | 
B2 | > 261 nM | 1 nM | 
B3 |  |  | binds
B4 |  |  | binds
B5 | 1 nM | 1 nM | 
B6 |  |  | binds
